According to IntAct's records for PubMed 30567737:

B1: 17S U2 SnRNP complex component HTATSF1 (Homo sapiens), O43719 (parent)
chain: MSGTNLDGNDEFDEQLRMQELYGDGKDGDTQTDAGGEPDSLGQQPTDTPYEWDLDKKAWFPKITEDFIATYQANYGFSNDGASSSTANVEDVHARTAEEPPQEKAPEPTDARKKGEKRKAESGWFHVEEDRNTNVYVSGLPPDITVDEFIQLMSKFGIIMRDPQTEEFKVKLYKDNQGNLKGDGLCCYLKRESVELALKLLDEDEIRGYKLHVEVAKFQLKGEYDASKKKKKCKDYKKKLSMQQKQLDWRPERRAGPSRMRHERVVIIKNMFHPMDFEDDPLVLNEIREDLRVECSKFGQIRKLLLFDRHPDGVASVSFRDPEEADYCIQTLDGRWFGGRQITAQAWDGTTDYQVEETSREREERLRGWEAFLNAPEANRGLRRSDSVSASERAGPSRARHFSEHPSTSKMNAQETATGMAFEEPIDEKKFEKTEDGGEFEEGASENNAKESSPEKEAEEGCPEKESEEGCPKRGFEGSCSQKESEEGNPVRGSEEDSPKKESKKKTLKNDCEENGLAKESEDDLNKESEEEVGPTKESEEDDSEKESDEDCSEKQSEDGSEREFEENGLEKDLDEEGSEKELHENVLDKELEENDSENSEFEDDGSEKVLDEEGSEREFDEDSDEKEEEEDTYEKVFDDESDEKEDEEYADEKGLEAADKKAEEGDADEKLFEESDDKEDEDADGKEVEDADEKLFEDDDSNEKLFDEEEDSSEKLFDDSDERGTLGGFGSVEEGPLSTGSSFILSSDDDDDDI

Variants of: B1
Conditions: with SF3B1, O75533-1
SF3B1, O75533-1, sequence (O75533 whole entry): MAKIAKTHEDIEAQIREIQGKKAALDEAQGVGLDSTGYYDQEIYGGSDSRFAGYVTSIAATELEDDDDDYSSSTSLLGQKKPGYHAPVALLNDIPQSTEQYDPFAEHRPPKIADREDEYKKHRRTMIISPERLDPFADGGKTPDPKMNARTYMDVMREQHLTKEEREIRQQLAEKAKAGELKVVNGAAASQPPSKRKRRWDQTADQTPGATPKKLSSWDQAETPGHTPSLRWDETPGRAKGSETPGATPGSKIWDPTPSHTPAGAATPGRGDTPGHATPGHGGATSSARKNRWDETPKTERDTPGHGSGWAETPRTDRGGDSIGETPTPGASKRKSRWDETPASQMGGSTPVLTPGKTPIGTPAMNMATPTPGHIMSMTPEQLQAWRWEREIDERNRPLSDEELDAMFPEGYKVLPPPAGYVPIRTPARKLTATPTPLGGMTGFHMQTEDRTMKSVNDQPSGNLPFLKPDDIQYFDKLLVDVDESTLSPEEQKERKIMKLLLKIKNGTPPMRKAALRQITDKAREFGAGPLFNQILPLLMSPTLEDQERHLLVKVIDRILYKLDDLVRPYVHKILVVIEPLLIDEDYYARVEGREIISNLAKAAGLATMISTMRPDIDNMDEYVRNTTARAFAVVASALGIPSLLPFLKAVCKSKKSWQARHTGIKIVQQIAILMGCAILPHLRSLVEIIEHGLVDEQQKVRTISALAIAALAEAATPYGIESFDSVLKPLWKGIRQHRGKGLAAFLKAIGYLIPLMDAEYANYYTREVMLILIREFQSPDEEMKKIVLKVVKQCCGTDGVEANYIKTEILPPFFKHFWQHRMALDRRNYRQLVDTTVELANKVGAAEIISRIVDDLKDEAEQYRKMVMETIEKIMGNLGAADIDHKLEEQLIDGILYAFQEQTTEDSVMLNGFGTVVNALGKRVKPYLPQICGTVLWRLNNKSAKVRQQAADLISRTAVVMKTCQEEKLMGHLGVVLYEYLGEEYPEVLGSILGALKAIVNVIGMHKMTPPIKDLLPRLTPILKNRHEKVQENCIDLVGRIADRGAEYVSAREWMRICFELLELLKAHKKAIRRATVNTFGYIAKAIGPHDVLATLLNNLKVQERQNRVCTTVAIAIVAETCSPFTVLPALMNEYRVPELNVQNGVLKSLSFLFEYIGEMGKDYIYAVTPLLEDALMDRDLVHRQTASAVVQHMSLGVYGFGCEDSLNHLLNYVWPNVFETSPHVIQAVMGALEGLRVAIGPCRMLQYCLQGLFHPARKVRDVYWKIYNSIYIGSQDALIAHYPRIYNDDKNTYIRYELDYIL

effect of a mutation on the interaction	Variant
disrupting interaction strength	E286K;D290K
disrupting interaction strength	E286K;F337A
